Results as given in the supplement of paper PMC10724198.
± gives the standard deviation of the averaged measurements.

Tested on: Saccharomyces cerevisiae
Test: protein stability index of tFT-peptide fusion (C-terminal peptide) (PSI (0-1 scale)); higher = more stable (slower turnover)
Details: genetic background: wild type; temperature: 30 C
Protocol: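 Multiplexed protein stability (MPS) profiling in S. cerevisiae. Random 12-aa peptides (tFT-X12 library) are fused to the C-terminus of a sfGFP-mCherry tandem fluorescent timer, after mCherry and a GGGS linker. Cells are FACS-sorted into 8 mCherry/sfGFP bins and deep-sequenced. The protein stability index (PSI) is the read-weighted bin average, scaled from 0 (unstable) to 1 (stable). Only peptides with >10 reads are reported; cells were grown at 30 °C in SC-His with glucose.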
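Further: PSI is a weighted mean of sequencing reads over stability bins, variants kept only with over 10 reads, mCherry proximal and sfGFP distal, peptide attached via GGGS linker.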

## IVNKRLKIRKKQ
  protein stability index: 0.658 ± 0.045

## SWCRCLALLDCT
  protein stability index: 0.659 ± 0.028

## ASGIYSRFSTSS
  protein stability index: 0.624 ± 0.052

## GVGGRGVGAGGG
  protein stability index: 0.662 ± 0.055

## ECYKKFVCSCCT
  protein stability index: 0.515 ± 0.0086

## CRSNISDLFSSV
  protein stability index: 0.7793 ± 0.0063

## PPPHVPPPPSSL
  protein stability index: 0.711 ± 0.023

## PPPPGPPPPSSL
  protein stability index: 0.6914 ± 0.006

## TQLSSVVVGGRR
  protein stability index: 0.669 ± 0.015

## PSSVPSTPTPPP
  protein stability index: 0.657 ± 0.076

## QVLIKKRNIKKK
  protein stability index: 0.651 ± 0.076

## PPPRPPPLPSPV
  protein stability index: 0.616 ± 0.0093

## VTTQELRCRPEG
  protein stability index: 0.636 ± 0.019

## SRRNRIYSHTSS
  protein stability index: 0.666 ± 0.025

## VVVVCSWPVSLL
  protein stability index: 0.5744 ± 0.0042

## PRRLCLLPLLSP
  protein stability index: 0.662 ± 0.022

## FWRPIPQSPLPQ
  protein stability index: 0.7203 ± 0.002

## RWFGRFSFCLFF
  protein stability index: 0.5 ± 0.055

## APRHSSLHPAPS
  protein stability index: 0.6986 ± 0.0029

## ITHLFRSSIYSR
  protein stability index: 0.683 ± 0.12

## FLGQPLSFSHVL
  protein stability index: 0.692 ± 0.035

## KQKKNEENTKKT
  protein stability index: 0.735 ± 0.064

## VACKGCVVACRV
  protein stability index: 0.527 ± 0.045

## VGAEGWAVAGDM
  protein stability index: 0.77 ± 0.078

## GGGGVVVVQGAG
  protein stability index: 0.725 ± 0.058

## PPPNSPPRPPLS
  protein stability index: 0.7035 ± 0.0046

## PPRVSLLTPSPR
  protein stability index: 0.853 ± 0.21

## LAGGMTSRTVSI
  protein stability index: 0.716 ± 0.0073

## TPPPAPRPPLPS
  protein stability index: 0.719 ± 0.069

## IFWGFSFRGWGG
  protein stability index: 0.684 ± 0.0086

## FRGAGAEGSGWG
  protein stability index: 0.634 ± 0.0066

## ESRWRSPCFIIW
  protein stability index: 0.626 ± 0.11

## DSHDMSQDLFVN
  protein stability index: 0.767 ± 0.039

## GGGGARRLAVGQ
  protein stability index: 0.678 ± 0.015

## TRGAGAKYSSVR
  protein stability index: 0.721 ± 0.019

## HRLSFPTQNIRG
  protein stability index: 0.677 ± 0.019

## SPFLINTIFDIT
  protein stability index: 0.606 ± 0.038

## AVLGRRSQHASA
  protein stability index: 0.6832 ± 0.0036

## EDRSITYNALIL
  protein stability index: 0.678 ± 0.013

## ITALYVILTRRP
  protein stability index: 0.6007 ± 0.0033

## SPPPPLLPHPTP
  protein stability index: 0.723 ± 0.047

## PPPPPHTSPSPT
  protein stability index: 0.744 ± 0.042

## PRPPHPPPASPP
  protein stability index: 0.58 ± 0.031

## LLLSSPPFPALL
  protein stability index: 0.638 ± 0.0074

## LFFGVEWWRFEG
  protein stability index: 0.5604 ± 0.0023

## VVRHWRRMTGDA
  protein stability index: 0.629 ± 0.12

## SLPASTEPNVGT
  protein stability index: 0.696 ± 0.034

## KKHTLNENKMKE
  protein stability index: 0.652 ± 0.011

## KSNTGGGERNKA
  protein stability index: 0.668 ± 0.018

## PTSDSPSLALPC
  protein stability index: 0.71 ± 0.023

## KKKKKKKKTKKR
  protein stability index: 0.637 ± 0.044

## SGSGVGVVVSEV
  protein stability index: 0.666 ± 0.049

## FGGSGAYRRVGE
  protein stability index: 0.7 ± 0.072

## GEPGQTSGREKT
  protein stability index: 0.641 ± 0.014

## RPPPPLSPPSLV
  protein stability index: 0.73 ± 0.0084

## RCVGVTNESTGT
  protein stability index: 0.661 ± 0.013

## PSPRISLSVFPC
  protein stability index: 0.646 ± 0.062

## IIRKTKSKQEMI
  protein stability index: 0.706 ± 0.039

## GGGGGVGVVRVG
  protein stability index: 0.66 ± 0.032

## GTTHHRRKPSYL
  protein stability index: 0.725 ± 0.05

## NGRTSRVMKDRK
  protein stability index: 0.6793 ± 0.0035

## GGWARGRQGCGG
  protein stability index: 0.782 ± 0.011

## CLWGQWAVGCMG
  protein stability index: 0.6169 ± 0.0019

## PLHSTPRPPAPG
  protein stability index: 0.706 ± 0.098

## CVWFGVGRCCGR
  protein stability index: 0.648 ± 0.043

## GFFRGMLEGINA
  protein stability index: 0.726 ± 0.073

## TRDATESLVERV
  protein stability index: 0.694 ± 0.02

## RGGVGLEGEGGE
  protein stability index: 0.615 ± 0.026

## YPNENFALLTEH
  protein stability index: 0.653 ± 0.046

## LPPAPPLPPPPT
  protein stability index: 0.683 ± 0.044

## VVAGGERMRTGV
  protein stability index: 0.671 ± 0.022

## GEVGAVVGESFV
  protein stability index: 0.622 ± 0.071

## RALLGSVVCSYG
  protein stability index: 0.6268 ± 0.0016

## LIGKNNTSIQLK
  protein stability index: 0.742 ± 0.16

## RPPRPSSSPLPP
  protein stability index: 0.719 ± 0.059

## GGRPDQARPSRH
  protein stability index: 0.741 ± 0.043

## RFETKERGIREK
  protein stability index: 0.719 ± 0.014

## NLLPFLGPLPRS
  protein stability index: 0.781 ± 0.067

## PYTPPTSSRDRS
  protein stability index: 0.661 ± 0.019

## PSLPLPSPPPFP
  protein stability index: 0.643 ± 0.1

## RERKEVGRRRIG
  protein stability index: 0.604 ± 0.022
